One test deals with T1, UHRF1 (Homo sapiens, UniProt Q96T88).
T1 sequence (Q96T88 1-793): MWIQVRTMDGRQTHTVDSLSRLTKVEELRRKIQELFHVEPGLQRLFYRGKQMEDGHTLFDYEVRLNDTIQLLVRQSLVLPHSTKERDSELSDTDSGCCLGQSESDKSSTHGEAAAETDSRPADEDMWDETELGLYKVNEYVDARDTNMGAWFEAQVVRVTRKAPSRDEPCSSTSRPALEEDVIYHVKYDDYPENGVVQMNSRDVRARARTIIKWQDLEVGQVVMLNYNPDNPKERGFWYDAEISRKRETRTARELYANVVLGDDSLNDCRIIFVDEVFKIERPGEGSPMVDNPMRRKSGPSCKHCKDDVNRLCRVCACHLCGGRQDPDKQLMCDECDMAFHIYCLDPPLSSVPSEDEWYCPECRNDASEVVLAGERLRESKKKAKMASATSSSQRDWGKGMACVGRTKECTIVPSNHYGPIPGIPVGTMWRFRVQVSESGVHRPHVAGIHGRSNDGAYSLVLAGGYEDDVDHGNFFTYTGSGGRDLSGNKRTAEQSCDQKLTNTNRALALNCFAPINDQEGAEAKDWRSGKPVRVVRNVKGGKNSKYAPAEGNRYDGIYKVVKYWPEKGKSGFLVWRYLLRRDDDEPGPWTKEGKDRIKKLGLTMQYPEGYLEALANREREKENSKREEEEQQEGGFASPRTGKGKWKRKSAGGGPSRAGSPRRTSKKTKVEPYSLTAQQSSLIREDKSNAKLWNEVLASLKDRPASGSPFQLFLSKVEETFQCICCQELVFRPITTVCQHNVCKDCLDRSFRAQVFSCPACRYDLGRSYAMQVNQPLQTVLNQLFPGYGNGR
The test is described as follows: microscale thermophoresis. Type of test: binding. Particulars: RED-NHS labelled protein, 1 µM; room temperature, 30 min. (In general: Microscale thermophoresis detects binding through changes in fluorescence in a small temperature gradient.)

A further test addresses T2, WNT5A protein (UniProt P41221 62-380).
T2 construct: WNT5A protein
T2 sequence (looked up): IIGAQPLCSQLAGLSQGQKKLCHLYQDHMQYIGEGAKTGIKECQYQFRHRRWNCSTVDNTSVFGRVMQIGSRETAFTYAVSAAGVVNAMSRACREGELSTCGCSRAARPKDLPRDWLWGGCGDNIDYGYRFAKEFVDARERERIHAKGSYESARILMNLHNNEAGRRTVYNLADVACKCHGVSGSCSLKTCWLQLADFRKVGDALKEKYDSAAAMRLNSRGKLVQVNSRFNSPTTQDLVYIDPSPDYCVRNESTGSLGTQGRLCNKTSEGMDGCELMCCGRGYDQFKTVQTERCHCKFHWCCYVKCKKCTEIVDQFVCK
Briefly: BLI; biotinylated SFRP5 immobilised on the biosensor (ForteBio Octet RED 96e); WNT5A in Assay Buffer at 0.156 to 5 uM; global fitting model. Particulars: both partners purified. On the technique in general: Biolayer interferometry detects binding as a change in optical thickness at a sensor tip.

Test [1] deals with T3, biotinylated SFRP5 protein (secreted frizzled-related protein 5) (UniProt Q5T4F7 30-317, biotin (biotinylated; site not stated)).
T3 chain: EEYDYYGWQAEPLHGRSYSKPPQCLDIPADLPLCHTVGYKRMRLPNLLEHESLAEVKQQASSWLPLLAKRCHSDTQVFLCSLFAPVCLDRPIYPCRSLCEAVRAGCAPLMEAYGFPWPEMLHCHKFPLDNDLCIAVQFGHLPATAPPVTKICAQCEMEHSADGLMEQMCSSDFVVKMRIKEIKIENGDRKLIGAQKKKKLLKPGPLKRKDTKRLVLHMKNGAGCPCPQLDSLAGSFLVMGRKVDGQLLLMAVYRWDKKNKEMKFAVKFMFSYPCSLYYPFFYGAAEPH
Briefly: BLI.

For orientation: Kd means the concentration at which binding is half-saturated. Low values mean a tighter complex, high ones a looser complex.

For the molecule `Cc1nc(Nc2ncc(C(=O)Nc3cc(NC(=O)c4cccc(C(F)(F)F)c4)ccc3C)s2)cc(N2CCN(CCO)CC2)n1` [UM164], binding at UHRF1 was put at a Kd of 10.2 µM.

B1: biotinylated SFRP5 protein (secreted frizzled-related protein 5) (natural protein, UniProt Q5T4F7 30-317, looked up)
chain: EEYDYYGWQAEPLHGRSYSKPPQCLDIPADLPLCHTVGYKRMRLPNLLEHESLAEVKQQASSWLPLLAKRCHSDTQVFLCSLFAPVCLDRPIYPCRSLCEAVRAGCAPLMEAYGFPWPEMLHCHKFPLDNDLCIAVQFGHLPATAPPVTKICAQCEMEHSADGLMEQMCSSDFVVKMRIKEIKIENGDRKLIGAQKKKKLLKPGPLKRKDTKRLVLHMKNGAGCPCPQLDSLAGSFLVMGRKVDGQLLLMAVYRWDKKNKEMKFAVKFMFSYPCSLYYPFFYGAAEPH
modifications: biotin (biotinylated; site not stated)
notes: secreted frizzled-related protein 5 (SFRP5)
On to B1, for which the Kd in the test with WNT5A protein was found to be 20.3 µM. This lies in the double-digit micromolar range.

B2: WNT5A protein (natural protein)
chain: IIGAQPLCSQLAGLSQGQKKLCHLYQDHMQYIGEGAKTGIKECQYQFRHRRWNCSTVDNTSVFGRVMQIGSRETAFTYAVSAAGVVNAMSRACREGELSTCGCSRAARPKDLPRDWLWGGCGDNIDYGYRFAKEFVDARERERIHAKGSYESARILMNLHNNEAGRRTVYNLADVACKCHGVSGSCSLKTCWLQLADFRKVGDALKEKYDSAAAMRLNSRGKLVQVNSRFNSPTTQDLVYIDPSPDYCVRNESTGSLGTQGRLCNKTSEGMDGCELMCCGRGYDQFKTVQTERCHCKFHWCCYVKCKKCTEIVDQFVCK
B2 had an equilibrium dissociation constant (Kd) in test [1] of 0.0203 µM.

For the origin of these results see paper PMC12041315, “UHRF1-mediated epigenetic reprogramming regulates glycolysis to promote progression of B-cell acute lymphoblastic leukemia” (Cell Death & Disease, 2025).
